Patent US20220160939A1, “SELF-ASSEMBLING PEPTIDES AS BRONCHIAL OBSTRUCTION AGENTS” (3-D MATRIX, LTD., priority 2014, published 2022)

What was measured:
Assay type in all cases: physicochemical
[1] = pH and appearance of 2.5% peptide solutions after adding 0.1 N NaOH
Experimental: To adjust the pH level of the peptide solutions by way of example, 0.1 N NaOH was added to 2 mL of 2.5% peptide solutions and their pH and appearance were measured.

[2] = Rheological properties of peptide solutions at adjusted salt ionic strength
Experimental: Based on the visual observation of the effect of salt ionic strength on the properties of the peptide solutions, the effect on the rheological properties of the peptide solutions after adjusting their ionic strength level with NaCl to 0.7 M (PuraMatrix® (SEQ ID NO:1)), 0.2 M (KLD12 (SEQ ID NO:3)) or 0.02 M (IEIK13 (SEQ ID NO:2)), which is closely below the critical ionic strength at which each peptide becomes cloudy, was evaluated. If the ionic strength levels with NaCl of peptide solutions are higher than 0.9 M (PuraMatrix® (SEQ ID NO:1)), 0.3 M (KLD12 (SEQ ID NO:3)) or 0.03 M (IEIK13 (SEQ ID NO:2)), the peptide solutions begin phase separation becoming cloudy and weak. The rheological property of PuraMatrix® (SEQ ID NO:1), KLD12 (SEQ ID NO:3) and IEIK13 (SEQ ID NO:2) solutions was higher after adjusting their ionic strength level with NaCl to 0.7 M (PuraMatrix® (SEQ ID NO:1)), 0.2 M (KLD12 (SEQ ID NO:3)) or 0.02 M (IEIK13 (SEQ ID NO:2)). The results are shown in FIG. 10 for KLD12 (SEQ ID NO:3) 1%, FIG. 11 for IEIK13 (SEQ ID NO:2) 1%, and FIG. 12 for PuraMatrix® (SEQ ID NO:1) 1%, respectively. Frequency sweep tests were performed from 1 rad/s to 10 rad/s at 1 Pa.
Based on the results of the effect on the rheological properties of the peptide solutions after adjusting their ionic strength level with NaCl to 0.7 M (PuraMatrix® (SEQ ID NO:1)), 0.2 M (KLD12 (SEQ ID NO:3)) or 0.02 M (IEIK13 (SEQ ID NO:2)), the effect on the rheological properties of the peptide solution at various salt ionic strengths was evaluated. […] The results are shown in FIG. 13 for PuraMatrix® (SEQ ID NO:1) 1% solutions and in FIG. 14 for IEIK13 (SEQ ID NO:2) 1% solutions. Frequency sweep tests were performed from 1 rad/sec to 10 rad/sec at 1 Pa and the storage modulus at 1 rad/sec was selected for data.
Based on the results of the effect on the rheological properties of the peptide solutions and hydrogels after adjusting their ionic strength levels with NaCl, the effect of various salts (KCl, MgCl2, and CaCl2) was also evaluated. The rheological property of PuraMatrix® (SEQ ID NO:1) solutions increases with ionic strength adjustment at 0.15 M of all the salts. Increases of the rheological property of PuraMatrix® (SEQ ID NO:1) solutions with various salts were not predominantly different. However, increases of the rheological property of PuraMatrix® (SEQ ID NO:1) solutions may vary depending on the salting out constant, K of each salt. Constant K is a constant in Cohen's equation: log S=B−KI, where S is solubility, B is idealized solubility, K is salting out constant, and I is ionic strength. With a higher value of constant K and ionic strength of salts, solubility of the peptide may decrease resulting in strong peptide self-assembly with increased hydrophobic effect and higher rheological properties of the peptide solution. The constant K of NaCl may be higher than the other salts. […] The results are shown in FIG. 17 for PuraMatrix® (SEQ ID NO:1) 1% solution before DMEM treatment, and in FIG. 18 for PuraMatrix® (SEQ ID NO:1) 1% hydrogels after DMEM treatment for 10 min Frequency sweep tests were performed from 1 rad/sec to 10 rad/sec at 1 Pa and the storage modulus at 1 rad/sec was selected for data.

[3] = Appearance of 1.5% peptide solutions with various salts at room temperature; conditions: for Appearance: room temperature
Experimental: The effect of salt ionic strength level on the properties of peptide solutions was evaluated to identify optimized salt ionic strength levels for the peptides as described herein. Increasing the salt ionic strength level of PuraMatrix® (SEQ ID NO:1) and other peptides may generally improve its function and mechanical strength for various clinical applications. To adjust the salt ionic strength of the peptide solutions by way of example, various salt buffer solutions including NaCl, KCl, MgCl2, CaCl2 and DPBS (10×) were added to 2 mL of 1.5% peptide solutions.

Which results are given for “Ile-Glu-Ile-Lys-Ile-Glu-Ile-Lys-Ile-Glu-Ile-Lys-Ile [IEIK13]”?
Appearance ([1]; 0.1N NaOH 150 μL/mL added in 2.5% solution, conc. 2.17%): Clear, thick gel, stiffer gel; Appearance ([1]; 0.1N NaOH 200 μL/mL added in 2.5% solution, conc. 2.08%): Clear, thick gel, stiffer gel; Appearance ([1]; 0.1N NaOH 250 μL/mL added in 2.5% solution, conc. 2.0%): Clear, thick gel, stiffer gel; Appearance ([1]; 0.1N NaOH 275 μL/mL added in 2.5% solution, conc. 1.96%): Clear, thick, stiffer gel; Appearance ([1]; 0.1N NaOH 300 μL/mL added in 2.5% solution, conc. 1.92%): Slightly cloudy, brittle gel; Appearance ([1]; 0.1N NaOH 400 μL/mL added in 2.5% solution, conc. 1.79%): Cloudy, phase-separated; Peptide solution pH ([1]; NaOH volume and conc. not given): 7.0; Appearance ([1]; peptide solution pH 7.0, NaOH volume and conc. not given): Cloudy, phase-separated; ionic strength up to which the rheological property of 1% solutions increases (decreases above) ([2]; 1% solutions, storage modulus at 1 rad/sec): up to 0.03 M; ionic strength level with NaCl above which solutions begin phase separation becoming cloudy and weak ([2]; NaCl): > 0.03 M; rheological property after adjusting ionic strength level with NaCl ([2]; NaCl to 0.7 M (PuraMatrix), 0.2 M (KLD12) or 0.02 M (IEIK13), 1% solutions): higher; critical salt ionic strengths at which peptides become cloudy [3]: 0.03˜0.04 M; Appearance ([3]; CaCl2 0 M, ionic strength 0 M, conc. 1.5%): Clear, thick gel; Appearance ([3]; CaCl2 0.005 M, ionic strength 0.015 M, conc. 1.46%): Clear, thick, stiffer gel; Appearance ([3]; CaCl2 0.0067 M, ionic strength 0.02 M, conc. 1.45%): Clear, thick, stiffer gel; Appearance ([3]; CaCl2 0.0083 M, ionic strength 0.025 M, conc. 1.44%): Clear, thick, stiffer gel; Appearance ([3]; CaCl2 0.01 M, ionic strength 0.03 M, conc. 1.43%): Clear, thick, stiffer gel; Appearance ([3]; CaCl2 0.0117 M, ionic strength 0.035 M, conc. 1.41%): Clear, thick, stiffer gel; Appearance ([3]; CaCl2 0.0133 M, ionic strength 0.04 M, conc. 1.40%): Slightly cloudy, thick, stiffer gel; Appearance ([3]; CaCl2 0.015 M, ionic strength 0.045 M, conc. 1.39%): Slightly cloudy, thick, stiffer gel; Appearance ([3]; CaCl2 0.0167 M, ionic strength 0.05 M, conc. 1.37%): Slightly cloudy, brittle gel; Appearance ([3]; CaCl2 0.0183 M, ionic strength 0.055 M, conc. 1.36%): Cloudy, phase-separated; Appearance ([3]; KCl 0 M, ionic strength 0 M, conc. 1.5%): Clear, thick gel; Appearance ([3]; KCl 0.005 M, ionic strength 0.005 M, conc. 1.46%): Clear, thick, stiffer gel; Appearance ([3]; KCl 0.01 M, ionic strength 0.01 M, conc. 1.43%): Clear, thick, stiffer gel; Appearance ([3]; KCl 0.015 M, ionic strength 0.015 M, conc. 1.39%): Clear, thick, stiffer gel; Appearance ([3]; KCl 0.02 M, ionic strength 0.02 M, conc. 1.35%): Clear, thick, stiffer gel; Appearance ([3]; KCl 0.025 M, ionic strength 0.025 M, conc. 1.31%): Clear, thick, stiffer gel; Appearance ([3]; KCl 0.03 M, ionic strength 0.03 M, conc. 1.27%): Clear, thick, stiffer gel; Appearance ([3]; KCl 0.035 M, ionic strength 0.035 M, conc. 1.24%): Slightly cloudy, brittle gel; Appearance ([3]; KCl 0.04 M, ionic strength 0.04 M, conc. 1.2%): Slightly cloudy, brittle; Appearance ([3]; KCl 0.045 M, ionic strength 0.045 M, conc. 1.16%): Cloudy, phase-separated; Appearance ([3]; MgCl2 0 M, ionic strength 0 M, conc. 1.5%): Clear, thick gel; Appearance ([3]; MgCl2 0.005 M, ionic strength 0.015 M, conc. 1.46%): Clear, thick, stiffer gel; Appearance ([3]; MgCl2 0.0067 M, ionic strength 0.02 M, conc. 1.45%): Clear, thick, stiffer gel; Appearance ([3]; MgCl2 0.0083 M, ionic strength 0.025 M, conc. 1.44%): Clear, thick, stiffer gel; Appearance ([3]; MgCl2 0.01 M, ionic strength 0.03 M, conc. 1.43%): Clear, thick, stiffer gel; Appearance ([3]; MgCl2 0.0117 M, ionic strength 0.035 M, conc. 1.41%): Clear, thick, stiffer gel; Appearance ([3]; MgCl2 0.0133 M, ionic strength 0.04 M, conc. 1.40%): Slightly cloudy, thick, stiffer gel; Appearance ([3]; MgCl2 0.015 M, ionic strength 0.045 M, conc. 1.39%): Slightly cloudy, stiffer gel; Appearance ([3]; MgCl2 0.0167 M, ionic strength 0.05 M, conc. 1.37%): Slightly cloudy, brittle gel; Appearance ([3]; MgCl2 0.0183 M, ionic strength 0.055 M, conc. 1.36%): Cloudy, phase-separated; Appearance ([3]; NaCl 0 M, ionic strength 0 M, conc. 1.5%): Clear, thick gel; Appearance ([3]; NaCl 0.005 M, ionic strength 0.005 M, conc. 1.46%): Clear, thick, stiffer gel; Appearance ([3]; NaCl 0.01 M, ionic strength 0.01 M, conc. 1.43%): Clear, thick, stiffer gel; Appearance ([3]; NaCl 0.015 M, ionic strength 0.015 M, conc. 1.39%): Clear, thick, stiffer gel; Appearance ([3]; NaCl 0.02 M, ionic strength 0.02 M, conc. 1.35%): Clear, thick, stiffer gel; Appearance ([3]; NaCl 0.025 M, ionic strength 0.025 M, conc. 1.31%): Clear, thick, stiffer gel; Appearance ([3]; NaCl 0.03 M, ionic strength 0.03 M, conc. 1.27%): Slightly cloudy, thick, stiffer gel; Appearance ([3]; NaCl 0.035 M, ionic strength 0.035 M, conc. 1.24%): Slightly cloudy, brittle gel; Appearance ([3]; NaCl 0.04 M, ionic strength 0.04 M, conc. 1.2%): Cloudy, phase-separated; salt ionic strength increase that did not change the clear color, while apparent stiffness increased ([3]; depending on different salts, 1.5% peptide solutions): 0.025˜0.035 M
